One block for each binder: values may come before it.
B4: soluble HEK (sHEK), complete extracellular domain (exodomain) of HEK encoded by exons I-VII (receptor, human, UniProt P29320 21-541, looked up)
chain: ELIPQPSNEVNLLDSKTIQGELGWISYPSHGWEEISGVDEHYTPIRTYQVCNVMDHSQNNWLRTNWVPRNSAQKIYVELKFTLRDCNSIPLVLGTCKETFNLYYMESDDDHGVKFREHQFTKIDTIAADESFTQMDLGDRILKLNTEIREVGPVNKKGFYLAFQDVGACVALVSVRVYFKKCPFTVKNLAMFPDTVPMDSQSLVEVRGSCVNNSKEEDPPRMYCSTEGEWLVPIGKCSCNAGYEERGFMCQACRPGFYKALDGNMKCAKCPPHSSTQEDGSMNCRCENNYFRADKDPPSMACTRPPSSPRNVISNINETSVILDWSWPLDTGGRKDVTFNIICKKCGWNIKQCEPCSPNVRFLPRQFGLTNTTVTVTDLLAHTNYTFEIDAVNGVSELSSPPRQFAAVSITTNQAAPSPVLTIKKDRTSRNSISLSWQEPEHPNGIILDYEVKYYEKQEQETSYTILRARGTNVTISSLKPDTIYVFQIRARTAAGYGTNSRKFEFETSPDSFSISGESSQ
notes: extracellular domain; Untagged soluble exodomain from CHO cells; also called HEK exodomain

Assays:
[1] = target: B4; experiment: BIAcore, apparent KD from equilibrium responses, LERK-Fc over immobilised HEK
Procedure: (§1) Figure 2C: FIG. 2C: Expression of soluble HEK (sHEK) polypeptides encoded by the constructs shown in B. sHEK in lane 1 corresponds to the complete extracellular domain (exodomain) of HEK encoded by exons I–VII. […] Samples (50 μl) of purified fusion proteins comprising the human Fc domain and either LERK 1, 2, 3, 4, 5 and 7 at 10 μg/ml in BIAcore running buffer were applied onto an sHEK-derivatised sensor chip. The responses were recorded 20 s after completion of the injection phase and are shown as relative BIAcore response units, (RU) compared to the response of an equal amount of human Fc domain used as a control in this experiment.
(§2) Receptor-ligand interactions within the Eph family RTKs has mainly been studied by modified indirect Scatchard analysis of human IgG-Fc fusion proteins of ligands or receptors binding to receptor or ligand transfected cells, respectively (Beckmann et al., 1994, supra; Davis et al., 1994, supra; Ceretti et al., 1995, supra: Bennett et at., 1995). To evaluate if BIAcore analysis also detected the interaction of various LERKs with HEK, we compared the binding of bivalent, Fc-fusion proteins of LERK (LERKS 1 to 5) and LERK 7 (FIG. 2C) to sensor chip-immobilised HEK exodomain. Each ligand sample was injected at concentrations between 0.1–10 µg/ml (approximately 0.8 to 80 nM) across the sensor chip. A sample containing 10 µg/ml of the recombinant Human Fc fragment was used as a control.

[2] = target: T1, LERK 7-FLAG (monovalent LERK7/AL-1 with N-terminal FLAG peptide) (human, UniProt P52803 21-203, limits assumed); experiment: BIAcore in-solution competition; 40 nM LERK 7 with increasing competitor injected onto an sHEK-derivatised sensor chip; residual response as % of the response without competitor
T1 construct: domain: mature protein stopped before the hydrophobic tail; also called soluble LERK7
T1 sequence (looked up): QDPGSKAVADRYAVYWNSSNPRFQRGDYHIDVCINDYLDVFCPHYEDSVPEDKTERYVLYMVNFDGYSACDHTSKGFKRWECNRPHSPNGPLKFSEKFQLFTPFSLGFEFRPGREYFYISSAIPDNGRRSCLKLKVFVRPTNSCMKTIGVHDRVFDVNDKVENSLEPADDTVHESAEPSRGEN
Procedure: (§3) The binding of various HEK constructs and derived peptides was analysed on the BIAcore optical biosensor (Pharmacia Biosensor, Sweden) using purified soluble HEK (corresponding to the entire extracellular domain) or LERK 7-FLAG derivatised CM 5 sensor chips and the interaction kinetics determined. The immobilization of HEK onto the sensor chip surface was performed essentially as described by Lackmann et al, 1996. LERK7-FLAG (47 μg/ml in 20 mM sodium acetate, pH 4.5) was coupled at 5 μl/min onto N-hydroxysuccinimide (NHS, 0.05 M)/N-hydroxysuccinimide-N-ethyl-N'-([…]) carbodiimide(EDC, 0.2 M) activated sensor chips (45 μl, 2 μl/min) to yield an increase in the response level of 2500–3000 response units (RU).
Figure 2F: FIG. 2F: Samples containing 40 nM LERK 7 and 1 nM—10 μM synthetic peptide encoded by exons I and II of the HEK gene (Δ), 10 nM—1 μM HEK I–VII (o), 10 nM—1 μM HEK IV–VII (x) or 1 nM—1 μM HEK I-III (□) were injected onto an sHEK-derivatised sensor chip. The residual responses are illustrated as percentage of the total response in the absence of competitor.

[3] = target: T2, recombinant Human Fc fragment (control) (human, UniProt P01857-1 99-330 = IgG part, limits assumed); experiment: BIAcore; human Fc domain at 10 µg/ml (50 µl) on an sHEK-derivatised sensor chip; response 20 s after the end of the injection
T2 construct: domain: Fc fragment; also called human Fc domain; control recombinant Fc construct
Procedure: as §1
as §2, with “A sample containing 10 µg/ml of the recombinant Human Fc fragment was used as a control.” left out

[4] = target: B4; experiment: BIAcore, apparent KD from kinetic rate constants, immobilised sHEK
Procedure: as §3
(§4) Figures 5A, 5B: FIG. 5: Binding curves for the interaction of monovalent LERK-FLAG fusion proteins with immobilised sHEK. Homogeneous preparations of CHO cell-derived LERK 3-FLAG (panel A) or LERK 7-FLAG (panel B) at increasing concentrations (8.22, 16.44, 32.88, 65.75, 131.5, 263, 526 nM) of LERK3-FLAG, and (1.25, 2.5, 5, 10, 20, 40, 80 nM) LERK7-FLAG were injected across an sHEK-derivatised sensor surface. BIAcore data for the association and dissociation phases were used to estimate corresponding kinetic rate constants on the basis of a one-to-one interaction model. (panel C). […]

[5] = target: B4; experiment: BIAcore, LERK 3-FLAG over immobilised sHEK, single component model
Procedure: as §3, §4

[6] = target: B4; experiment: BIAcore, LERK-FLAG over HEK sensor chip; reference LERK 7-FLAG

- Kd [1]: 3 nM
B1: LERK7-Fc fusion protein (Fc fusion, UniProt P52803 21-203, looked up)
chain: QDPGSKAVADRYAVYWNSSNPRFQRGDYHIDVCINDYLDVFCPHYEDSVPEDKTERYVLYMVNFDGYSACDHTSKGFKRWECNRPHSPNGPLKFSEKFQLFTPFSLGFEFRPGREYFYISSAIPDNGRRSCLKLKVFVRPTNSCMKTIGVHDRVFDVNDKVENSLEPADDTVHESAEPSRGEN
notes: not shown: Fc and hinge regions of human IgG1

- Kd [1]: 24 nM
B2: LERK 5-Fc fusion protein (Fc fusion, UniProt P52799 28-229, looked up)
chain: IVLEPIYWNSSNSKFLPGQGLVLYPQIGDKLDIICPKVDSKTVGQYEYYKVYMVDKDQADRCTIKKENTPLLNCAKPDQDIKFTIKFQEFSPNLWGLEFQKNKDYYIISTSNGSLEGLDNQEGGVCQTRAMKILMKVGQDASSAGSTRNKDPTRRPELEAGTNGRSSTTSPFVKPNPGSSTDGNSAGHSGNNILGSEVALFA
notes: not shown: human Fc domain

- IC50 (read off the curve) [2]: ~90 nM
B3: HEK I-VII (N-terminally FLAG-tagged HEK exodomain, exons I-VII) (receptor, human, UniProt P29320 21-541, looked up, not shown: small tags and cut ends)
chain: ELIPQPSNEVNLLDSKTIQGELGWISYPSHGWEEISGVDEHYTPIRTYQVCNVMDHSQNNWLRTNWVPRNSAQKIYVELKFTLRDCNSIPLVLGTCKETFNLYYMESDDDHGVKFREHQFTKIDTIAADESFTQMDLGDRILKLNTEIREVGPVNKKGFYLAFQDVGACVALVSVRVYFKKCPFTVKNLAMFPDTVPMDSQSLVEVRGSCVNNSKEEDPPRMYCSTEGEWLVPIGKCSCNAGYEERGFMCQACRPGFYKALDGNMKCAKCPPHSSTQEDGSMNCRCENNYFRADKDPPSMACTRPPSSPRNVISNINETSVILDWSWPLDTGGRKDVTFNIICKKCGWNIKQCEPCSPNVRFLPRQFGLTNTTVTVTDLLAHTNYTFEIDAVNGVSELSSPPRQFAAVSITTNQAAPSPVLTIKKDRTSRNSISLSWQEPEHPNGIILDYEVKYYEKQEQETSYTILRARGTNVTISSLKPDTIYVFQIRARTAAGYGTNSRKFEFETSPDSFSISGESSQ
notes: extracellular domain; CHO cell product; in the zebrafish experiments expressed from injected mRNA; also called HEK-FLAG

Binder: B4
- binding result [3]: no binding (tested: 10 µg/ml)

- Kd [1]: 6 nM
B5: LERK 4-Fc fusion protein (Fc fusion, UniProt P52798 26-170, looked up)
chain: LRHVVYWNSSNPRLLRGDAVVELGLNDYLDIVCPHYEGPGPPEGPETFALYMVDWPGYESCQAEGPRAYKRWVCSLPFGHVQFSEKIQRFTPFSLGFEFLPGETYYYISVPTPESSGQCLRLQVSVCCKERKSESAHPVGSPGES
notes: not shown: human Fc domain

- IC50 (read off the curve) [2]: ~70 nM
B6: HEK I-III (FLAG-tagged HEK subdomain construct, exons I-III) (receptor, not shown: small tags and cut ends)
chain: ELIPQPSNEVNLLDSKTIQGELGWISYPSHGWEEISGVDEHYTPIRTYQVCNVMDHSQNNWLRTNWVPRNSAQKIYVELKFTLRDCNSIPLVLGTCKETFNLYYMESDDDHGVKFREHQFTKIDTIAADESFTQMDLGDRILKLNTEIREVGPVNKKGFYLAFQDVGACVALVSVRVYFKKCPFTVKNLAMFPDTVPMDSQSLVEVRGSCVNNSKEEDPPRMYCSTEGEWLVPIGKCSCNAGYEERGFMCQ
notes: Native signal peptide (residues 1-20) replaced by IL3 signal and FLAG

- Kd [4]: 590 nM
- koff [5]: 0.26 s⁻¹
- kon [5]: 370000 M⁻¹ s⁻¹
- fold higher concentration needed for a response comparable to LERK7 [6]: ~30 fold
B7: LERK 3-FLAG (monovalent FLAG-tagged LERK 3) (ligand, UniProt P52797 23-214, looked up, not shown: small tags and cut ends)
chain: QGPGGALGNRHAVYWNSSNQHLRREGYTVQVNVNDYLDIYCPHYNSSGVGPGAGPGPGGGAEQYVLYMVSRNGYRTCNASQGFKRWECNRPHAPHSPIKFSEKFQRYSAFSLGYEFHAGHEYYYISTPTHNLHWKCLRMKVFVCCASTSHSGEKPVPTLPQFTMGPNVKINVLEDFEGENPQVPKLEKSISG
notes: CHO cell-derived

- Kd [1]: 5 nM
B8: LERK 3-Fc fusion protein (Fc fusion, UniProt P52797 23-214, looked up)
chain: QGPGGALGNRHAVYWNSSNQHLRREGYTVQVNVNDYLDIYCPHYNSSGVGPGAGPGPGGGAEQYVLYMVSRNGYRTCNASQGFKRWECNRPHAPHSPIKFSEKFQRYSAFSLGYEFHAGHEYYYISTPTHNLHWKCLRMKVFVCCASTSHSGEKPVPTLPQFTMGPNVKINVLEDFEGENPQVPKLEKSISG
notes: not shown: human Fc domain

From patent US7037662 (dated 2006)
